What follows are sequences tested on c-Src (assay: phosphorylation enrichment, bacterial display (enrichment ratio); higher = better substrate or ligand; peptides without Tyr show the background).
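Note: 11-residue human phosphosite peptides and single-mutation variants displayed on the E. coli surface, counted by deep sequencing, each peptide's frequency after selection divided by its frequency in the unselected input library; frequency after pTyr selection over input frequency; kinase dosed for 20-30% of maximal phosphorylation in three min.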

Point of comparison: IQVDAYFSPIH [ADSL_Y432], phosphorylation enrichment 0.484. Against it:
- YLEKYYKFGSR [NNMT_Y25] — higher, 0.654
- TTEHIYGDKFF [UBA7_Y524_N527K] — higher, 4.65
- MDFRSYPHEFG [RBM10_Y44_R46H_YF] — lower, 0.317
- DVLPEYKLQAP [KCNH2_Y388] — lower, 0.405
- AFSLKYDQQTQ [SYTL4_Y366_E367D] — lower, 0.48
- SVSVNYGDLVQ [GRAP_Y101_Q104L] — lower, 0.419
- NALVQYQEMEK [BBS4_Y395_A393V] — higher, 0.507
- SRGRQYQELPR [KCNH2_Y1009] — lower, 0.441
- TLNHQYDFTFH [CSNK1A1_Y292_D297H_YF] — higher, 0.58
- MHDKEYFSVHN [MET_Y1234_Y1230H_YF] — higher, 0.487
- VIIVLYFSLWK [SLC6A2_Y249_V245I] — lower, 0.386
- DALDNYVIRGV [PCCA_Y473] — higher, 0.504
- NLSVRYDSSLK [ABCC8_Y1353] — higher, 0.492
- SNYRAYATEPQ [TNNI3_Y29_H34Q] — lower, 0.44
- QGIPWYHSQSP [FOXF1_Y331_R330W] — higher, 0.601
- KTVQDYLKKFY [MMP8_Y36_E38K] — lower, 0.421
- AQRKLYRNVML [ZNF569_Y33] — higher, 0.535
- VEDQFYRVDCF [FHL1_Y208_C209R_YF] — higher, 1.1
- SLGKGYYDGGC [MC4R_Y35_S36Y] — higher, 0.543
- DVFRQYASLRG [GANAB_Y379_T383R] — lower, 0.399
- EAGKVYLKAPM [CBFB_Y96] — lower, 0.434
- GVKLTYGDAQN [SLC28A1_Y404] — higher, 0.499
- FAREGYSALPQ [SARS2_Y52_YF] — lower, 0.43
- QAINEYEKWLE [MAP9_Y603] — higher, 0.631
- NFATLHLKIYH [PDE6B_Y219_Y219H] — higher, 0.568
- PADCRYYTFPQ [GAMT_Y222_A224T] — higher, 5.45
- TGEDWYVLVRV [SF3B3_Y904_G908R] — lower, 0.385
- FCIDHYLGKEM [G6PD_Y202_R198C_YF] — lower, 0.394
- FRASFYRRGDR [LTK_Y677_YF] — higher, 0.709
- DPYHVYIKNHV [KCNE3_Y95_R99H] — higher, 2.34
- KGIQLYDTPFE [SHB_Y297_YF] — higher, 0.729
- ERFAFYRDSPR [FOXE3_Y108] — higher, 0.587

What follows are sequences tested against Hck (UniProt P08631) in the same assay as above.
Sequence of Hck (P08631 whole entry, looked up): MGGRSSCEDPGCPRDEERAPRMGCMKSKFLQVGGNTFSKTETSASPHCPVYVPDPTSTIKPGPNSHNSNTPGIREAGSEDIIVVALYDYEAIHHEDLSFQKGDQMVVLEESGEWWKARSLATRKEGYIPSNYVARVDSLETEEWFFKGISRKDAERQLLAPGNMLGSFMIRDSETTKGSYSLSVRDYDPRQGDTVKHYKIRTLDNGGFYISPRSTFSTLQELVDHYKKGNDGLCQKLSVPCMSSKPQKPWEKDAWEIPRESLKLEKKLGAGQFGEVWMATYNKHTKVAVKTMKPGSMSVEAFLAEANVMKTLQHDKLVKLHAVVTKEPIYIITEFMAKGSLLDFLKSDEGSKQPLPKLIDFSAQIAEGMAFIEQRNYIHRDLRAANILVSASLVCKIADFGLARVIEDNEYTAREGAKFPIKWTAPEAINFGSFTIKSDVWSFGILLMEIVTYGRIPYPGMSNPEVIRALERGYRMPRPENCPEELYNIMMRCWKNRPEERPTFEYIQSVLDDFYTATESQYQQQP

Point of comparison: SVSVNYGDLVQ [GRAP_Y101_Q104L], phosphorylation enrichment 0.476. Against it:
- YLEKYYKFGSR [NNMT_Y25] — lower, 0.473
- TTEHIYGDKFF [UBA7_Y524_N527K] — higher, 2.15
- MDFRSYPHEFG [RBM10_Y44_R46H_YF] — lower, 0.335
- DVLPEYKLQAP [KCNH2_Y388] — higher, 0.519
- AFSLKYDQQTQ [SYTL4_Y366_E367D] — higher, 0.614
- IQVDAYFSPIH [ADSL_Y432] — higher, 0.684
- NALVQYQEMEK [BBS4_Y395_A393V] — higher, 0.569
- SRGRQYQELPR [KCNH2_Y1009] — higher, 0.527
- TLNHQYDFTFH [CSNK1A1_Y292_D297H_YF] — higher, 0.559
- MHDKEYFSVHN [MET_Y1234_Y1230H_YF] — higher, 0.494
- VIIVLYFSLWK [SLC6A2_Y249_V245I] — lower, 0.369
- DALDNYVIRGV [PCCA_Y473] — lower, 0.46
- NLSVRYDSSLK [ABCC8_Y1353] — lower, 0.473
- SNYRAYATEPQ [TNNI3_Y29_H34Q] — higher, 0.497
- QGIPWYHSQSP [FOXF1_Y331_R330W] — higher, 0.547
- KTVQDYLKKFY [MMP8_Y36_E38K] — lower, 0.438
- AQRKLYRNVML [ZNF569_Y33] — higher, 0.481
- VEDQFYRVDCF [FHL1_Y208_C209R_YF] — higher, 0.551
- SLGKGYYDGGC [MC4R_Y35_S36Y] — higher, 0.552
- DVFRQYASLRG [GANAB_Y379_T383R] — lower, 0.404
- EAGKVYLKAPM [CBFB_Y96] — higher, 0.496
- GVKLTYGDAQN [SLC28A1_Y404] — lower, 0.369
- FAREGYSALPQ [SARS2_Y52_YF] — higher, 0.524
- QAINEYEKWLE [MAP9_Y603] — higher, 1.2
- NFATLHLKIYH [PDE6B_Y219_Y219H] — lower, 0.47
- PADCRYYTFPQ [GAMT_Y222_A224T] — higher, 2.64
- TGEDWYVLVRV [SF3B3_Y904_G908R] — higher, 0.561
- FCIDHYLGKEM [G6PD_Y202_R198C_YF] — lower, 0.43
- FRASFYRRGDR [LTK_Y677_YF] — lower, 0.463
- DPYHVYIKNHV [KCNE3_Y95_R99H] — higher, 0.705
- KGIQLYDTPFE [SHB_Y297_YF] — higher, 1.73
- ERFAFYRDSPR [FOXE3_Y108] — higher, 0.523

What follows are sequences tested against EPHB1 (UniProt P54762) in the same assay as above.
Sequence of EPHB1 (P54762 whole entry, looked up): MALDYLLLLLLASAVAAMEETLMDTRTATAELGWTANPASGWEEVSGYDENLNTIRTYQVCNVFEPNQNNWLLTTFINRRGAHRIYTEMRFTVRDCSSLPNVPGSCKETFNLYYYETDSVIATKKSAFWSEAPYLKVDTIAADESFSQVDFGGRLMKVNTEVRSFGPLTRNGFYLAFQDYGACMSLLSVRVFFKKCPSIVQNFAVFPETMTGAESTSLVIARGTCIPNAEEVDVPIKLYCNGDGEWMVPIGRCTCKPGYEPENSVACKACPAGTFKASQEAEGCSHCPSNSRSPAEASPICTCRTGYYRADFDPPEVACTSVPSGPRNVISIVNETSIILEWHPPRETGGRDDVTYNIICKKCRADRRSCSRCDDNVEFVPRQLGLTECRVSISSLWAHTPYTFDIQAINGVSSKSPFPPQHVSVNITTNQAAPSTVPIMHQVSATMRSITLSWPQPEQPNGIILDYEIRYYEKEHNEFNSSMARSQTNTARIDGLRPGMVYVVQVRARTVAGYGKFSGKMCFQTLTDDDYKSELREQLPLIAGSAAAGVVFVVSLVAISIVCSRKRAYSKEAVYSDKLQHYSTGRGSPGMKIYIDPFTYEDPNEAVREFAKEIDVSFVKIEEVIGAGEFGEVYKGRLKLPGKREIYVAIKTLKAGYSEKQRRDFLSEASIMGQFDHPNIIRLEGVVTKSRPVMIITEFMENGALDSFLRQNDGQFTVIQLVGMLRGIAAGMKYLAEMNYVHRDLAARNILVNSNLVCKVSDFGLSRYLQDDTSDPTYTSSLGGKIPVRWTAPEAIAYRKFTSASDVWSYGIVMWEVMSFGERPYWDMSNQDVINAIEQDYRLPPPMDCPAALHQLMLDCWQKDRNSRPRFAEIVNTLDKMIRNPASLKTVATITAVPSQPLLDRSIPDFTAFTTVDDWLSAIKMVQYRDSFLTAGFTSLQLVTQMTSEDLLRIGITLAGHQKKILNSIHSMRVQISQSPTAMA

Point of comparison: NALVQYQEMEK [BBS4_Y395_A393V], phosphorylation enrichment 0.507. Against it:
- YLEKYYKFGSR [NNMT_Y25] — lower, 0.453
- TTEHIYGDKFF [UBA7_Y524_N527K] — lower, 0.468
- MDFRSYPHEFG [RBM10_Y44_R46H_YF] — lower, 0.434
- DVLPEYKLQAP [KCNH2_Y388] — higher, 0.548
- AFSLKYDQQTQ [SYTL4_Y366_E367D] — lower, 0.484
- IQVDAYFSPIH [ADSL_Y432] — higher, 0.738
- SVSVNYGDLVQ [GRAP_Y101_Q104L] — higher, 0.516
- SRGRQYQELPR [KCNH2_Y1009] — lower, 0.316
- TLNHQYDFTFH [CSNK1A1_Y292_D297H_YF] — higher, 0.759
- MHDKEYFSVHN [MET_Y1234_Y1230H_YF] — higher, 0.554
- VIIVLYFSLWK [SLC6A2_Y249_V245I] — lower, 0.363
- DALDNYVIRGV [PCCA_Y473] — higher, 0.512
- NLSVRYDSSLK [ABCC8_Y1353] — higher, 0.515
- SNYRAYATEPQ [TNNI3_Y29_H34Q] — lower, 0.461
- QGIPWYHSQSP [FOXF1_Y331_R330W] — lower, 0.435
- KTVQDYLKKFY [MMP8_Y36_E38K] — lower, 0.396
- AQRKLYRNVML [ZNF569_Y33] — lower, 0.412
- VEDQFYRVDCF [FHL1_Y208_C209R_YF] — higher, 0.692
- SLGKGYYDGGC [MC4R_Y35_S36Y] — higher, 0.65
- DVFRQYASLRG [GANAB_Y379_T383R] — lower, 0.329
- EAGKVYLKAPM [CBFB_Y96] — lower, 0.443
- GVKLTYGDAQN [SLC28A1_Y404] — lower, 0.379
- FAREGYSALPQ [SARS2_Y52_YF] — lower, 0.426
- QAINEYEKWLE [MAP9_Y603] — higher, 1.67
- NFATLHLKIYH [PDE6B_Y219_Y219H] — higher, 0.675
- PADCRYYTFPQ [GAMT_Y222_A224T] — higher, 3.34
- TGEDWYVLVRV [SF3B3_Y904_G908R] — higher, 0.893
- FCIDHYLGKEM [G6PD_Y202_R198C_YF] — higher, 0.581
- FRASFYRRGDR [LTK_Y677_YF] — higher, 0.543
- DPYHVYIKNHV [KCNE3_Y95_R99H] — lower, 0.467
- KGIQLYDTPFE [SHB_Y297_YF] — higher, 8.6
- ERFAFYRDSPR [FOXE3_Y108] — lower, 0.456

The sequences below were run against EPHB2 (UniProt P29323) in the same assay as above.
Sequence of EPHB2 (P29323 whole entry, looked up): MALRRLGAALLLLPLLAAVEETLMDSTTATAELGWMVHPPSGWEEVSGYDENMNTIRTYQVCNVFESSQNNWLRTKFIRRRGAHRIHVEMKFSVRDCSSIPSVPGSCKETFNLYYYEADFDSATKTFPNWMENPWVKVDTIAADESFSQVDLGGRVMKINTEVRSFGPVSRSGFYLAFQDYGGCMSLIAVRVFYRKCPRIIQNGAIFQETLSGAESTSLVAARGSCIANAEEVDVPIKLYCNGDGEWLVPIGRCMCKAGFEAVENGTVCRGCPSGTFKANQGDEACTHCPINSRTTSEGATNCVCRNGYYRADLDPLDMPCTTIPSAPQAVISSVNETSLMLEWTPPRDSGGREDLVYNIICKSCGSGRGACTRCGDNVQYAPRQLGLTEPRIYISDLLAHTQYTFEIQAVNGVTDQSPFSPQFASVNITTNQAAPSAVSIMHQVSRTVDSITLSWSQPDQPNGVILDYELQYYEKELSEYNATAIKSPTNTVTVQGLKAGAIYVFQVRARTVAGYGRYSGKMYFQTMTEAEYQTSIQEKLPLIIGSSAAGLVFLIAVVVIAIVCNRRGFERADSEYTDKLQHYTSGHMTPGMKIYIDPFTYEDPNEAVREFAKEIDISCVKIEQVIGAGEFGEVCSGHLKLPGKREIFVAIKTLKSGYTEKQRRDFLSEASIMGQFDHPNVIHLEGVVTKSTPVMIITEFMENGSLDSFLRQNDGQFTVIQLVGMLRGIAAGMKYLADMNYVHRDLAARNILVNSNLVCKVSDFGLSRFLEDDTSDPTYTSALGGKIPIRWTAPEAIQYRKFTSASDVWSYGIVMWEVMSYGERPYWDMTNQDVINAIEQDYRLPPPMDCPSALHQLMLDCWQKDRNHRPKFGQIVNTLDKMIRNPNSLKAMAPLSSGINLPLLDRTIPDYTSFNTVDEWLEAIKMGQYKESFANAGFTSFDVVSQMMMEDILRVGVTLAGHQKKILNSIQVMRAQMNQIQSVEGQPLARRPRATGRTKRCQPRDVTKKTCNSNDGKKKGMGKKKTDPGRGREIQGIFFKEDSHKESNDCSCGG

Point of comparison: AQRKLYRNVML [ZNF569_Y33], phosphorylation enrichment 0.287. Against it:
- YLEKYYKFGSR [NNMT_Y25] — higher, 0.48
- TTEHIYGDKFF [UBA7_Y524_N527K] — higher, 0.477
- MDFRSYPHEFG [RBM10_Y44_R46H_YF] — higher, 0.402
- DVLPEYKLQAP [KCNH2_Y388] — higher, 0.557
- AFSLKYDQQTQ [SYTL4_Y366_E367D] — higher, 0.69
- IQVDAYFSPIH [ADSL_Y432] — higher, 0.75
- SVSVNYGDLVQ [GRAP_Y101_Q104L] — higher, 0.557
- NALVQYQEMEK [BBS4_Y395_A393V] — higher, 0.503
- SRGRQYQELPR [KCNH2_Y1009] — higher, 0.347
- TLNHQYDFTFH [CSNK1A1_Y292_D297H_YF] — higher, 0.624
- MHDKEYFSVHN [MET_Y1234_Y1230H_YF] — higher, 0.619
- VIIVLYFSLWK [SLC6A2_Y249_V245I] — higher, 0.371
- DALDNYVIRGV [PCCA_Y473] — higher, 0.583
- NLSVRYDSSLK [ABCC8_Y1353] — higher, 0.457
- SNYRAYATEPQ [TNNI3_Y29_H34Q] — higher, 0.467
- QGIPWYHSQSP [FOXF1_Y331_R330W] — higher, 0.503
- KTVQDYLKKFY [MMP8_Y36_E38K] — higher, 0.398
- VEDQFYRVDCF [FHL1_Y208_C209R_YF] — higher, 0.587
- SLGKGYYDGGC [MC4R_Y35_S36Y] — higher, 0.591
- DVFRQYASLRG [GANAB_Y379_T383R] — higher, 0.435
- EAGKVYLKAPM [CBFB_Y96] — higher, 0.524
- GVKLTYGDAQN [SLC28A1_Y404] — higher, 0.45
- FAREGYSALPQ [SARS2_Y52_YF] — higher, 0.466
- QAINEYEKWLE [MAP9_Y603] — higher, 1.03
- NFATLHLKIYH [PDE6B_Y219_Y219H] — higher, 0.536
- PADCRYYTFPQ [GAMT_Y222_A224T] — higher, 2.18
- TGEDWYVLVRV [SF3B3_Y904_G908R] — higher, 0.64
- FCIDHYLGKEM [G6PD_Y202_R198C_YF] — higher, 0.505
- FRASFYRRGDR [LTK_Y677_YF] — higher, 0.552
- DPYHVYIKNHV [KCNE3_Y95_R99H] — higher, 0.459
- KGIQLYDTPFE [SHB_Y297_YF] — higher, 12.9
- ERFAFYRDSPR [FOXE3_Y108] — higher, 0.51

From the supplement of paper PMC10065799, “High-throughput profiling of sequence recognition by tyrosine kinases and SH2 domains using bacterial peptide display” (eLife, 2023)
